Experimental data as given in patent publication US10829528B2, “Therapeutic agents for neurological and psychiatric disorders” (VIB VZW, priority 2016, dated 2020).

Experiments:
[1] = system: cultured hippocampal neurons; test: FM1-43 dye labeling of presynaptic vesicle recycling; assay type: cell-based, mouse
Protocol: We assessed the effect of sAPPα on synaptic vesicle recycling (ref6) using the activity-dependent dye FM1-43. We measured density (D) and intensity (ΔF) of FM1-43 uptake in presynaptic vesicles turned over by stimulation of 30 action potentials (APs) at a rate of 1 Hz in cultured hippocampal neurons.
The experiments were performed in mature (15-28 days in vitro) cultures. Hippocampal neurons were imaged using a FV1000 spectral Olympus confocal microscope using a 60×1.2 NA water immersion objective. The experiments were conducted at room temperature in extracellular Tyrode solution containing (in mM): NaCl, 145; KCl, 3; glucose, 15; HEPES, 10; MgCl2, 1.2; CaCl2), 1.2; pH adjusted to 7.4 with NaOH. For FM-based imaging and analysis, activity-dependent FM1-43 (10 μM) styryl dye was used to estimate basal synaptic vesicle recycling using previously described protocol48. Briefly, action potentials were elicited by passing 50 mA constant current for 1 ms through two platinum wires, separated by ˜7 mm and close to the surface of the coverslip. The extracellular medium contained non-selective blocker of glutamate receptors (0.5 mM kynurenic acid) to block recurrent neuronal activity. 30 stimuli at 1 Hz were applied during FM1-43 loading, while 800 stimuli at 2 Hz during unloading. The fluorescence of individual synapses was determined from the difference between images obtained after staining and after destining (ΔF). Detection of signals was done using custom-written scripts in MATLAB (Mathworks) as described before48.

[2] = system: primary hippocampal neurons; test: mEPSCs & mIPSCs in cultured primary hippocampal neurons (wild type); assay type: cell-based, mouse
Protocol: mEPSCs & mIPSCs are measured in cultured primary hippocampal neurons at baseline and following acute application of agonists. Excitatory terminals selectively express the sushi domain-containing GABABR1a isoform (ref18), where it functions to inhibit neurotransmitter release (ref 24). Acute exposure of primary hippocampal neurons from wild type mice to 30μM baclofen, a GABABR agonist, or 250 nM sAPPα (Fc cleaved) reduces the frequency of miniature excitatory postsynaptic currents (mEPSCs) by 68% (FIG. 8 a,b) and 39% (FIG. 8 c,d), respectively, with no effect on mEPSC amplitude (FIG. 8e). […] Acute application of 30 μM baclofen or 250 nM purified sAPPα reduces the frequency of miniature inhibitory postsynaptic currents (mIPSCs) by 63% (FIG. 8a, 9a) and 44% (FIG. 8c, 9b), respectively, which is blocked by pretreatment with the GABABR antagonist CGP55845 (CGP, 5 μM) (FIG. 8f, 9d). Application of sAPPα causes a minor (14%) reduction on mIPSC amplitude (FIG. 8e, 9c). […] Baclofen is known to reduce the frequencies of mEPSCs and mIPSCs, which we have also confirmed. […] To confirm that the agonist is acting through GABABR1a, the agonist is tested in cultures with shRNA mediated knockdown of GABABR1a or antisense oligonucleotides mediated exon skipping of the exon encoding the Sushi domain 1 of GABABR1a. Antagonists are tested by treatment in combination with the agonist, Baclofen. […] As an antagonist we test an antibody against the sushi domain sequence (SEQ ID No: 5): […] SWTDMDTPSRCV. An antibody specifically binding to this domain which acts as an antagonist increases the frequencies of mEPSCs and mIPSCs. sAPPα also reduces mEPSC and mIPSC frequency in App/Aplp1 dKO cultures (FIG. 8j, 9f), excluding the possibility that sAPPα interferes with a complex of full-length APP and GABABR1 to exert its effect on GABABR signaling.
Hippocampal neurons were cultured from E18 C57/B16 wild type mice or APP/APLP1 dKO mice (provided by Ulrike Muller46) and plated on poly-D-lysine (Millipore), and laminin (Invitrogen) coated coverslips (Nalge Nunc International). Neurons were maintained in Neurobasal medium (Invitrogen) supplemented with B27, glucose, glutamax, penicillin/streptomycin (Invitrogen) and 25 μM β-mercaptoethanol.
Single neurons from wild type or APP/APLP1 null mutant embryos (E18) were recorded within the large neuronal network at DIV 12-15. The intracellular whole-cell pipette medium contained (in mM): 136 KCl, 18 HEPES, 4 Na-ATP, 4.6 MgCl2, 15 Creatine Phosphate, 1 EGTA and 50 U/ml Phospocreatine Kinase (300 mOsm, pH 7.30). Regular external solution contained 2 mM/2 mM Ca2+/Mg2+(in mM: 140 NaCl, 2.4 KCl, 2 CaCl2), 2 MgCl2, 10 HEPES, 14 Glucose (300 mOsm, pH 7.30)) and TTX (1 μM). Pharmacological reagents (30 μM baclofen, 5 μM CGP), sAPLP1, full length sAPP and sAPP derived peptides (250 nM each) were bath applied (dissolved in external medium described above) using a separate gravity driven application inlet. Recordings were done in whole cell voltage clamp configuration at −70 mV with a double EPC-10 amplifier (HEKA Elektronik) under control of Patchmaster v2×32 software (HEKA Elektronik). Currents were low-pass filtered at 3 kHz and stored at 20 kHz. Patch pipettes were pulled from borosilicate glass using a multi-step puller (P-1000; Sutter Instruments). Pipette resistance ranged from 3 to 5 MΩ and was compensated to 75-80%. Only cells with series resistances <15 MΩ were included in analysis. All recordings were done at room temperature. Spontaneous events were detected using Mini Analysis program (Synaptosoft). mEPSCs and mIPSCs were separated on the basis of their distinct decay kinetics, using a threshold of 5 ms47. Baseline was determined from an average of 60 sec of recordings prior to protein or drug treatment. Effect of treatment was determined from an average of 30 sec recordings after 140 sec of protein or drug treatment.

[3] = system: App/Aplp1 dKO primary hippocampal neurons; test: mEPSCs & mIPSCs in App/Aplp1 dKO primary hippocampal cultures; assay type: cell-based, mouse
Protocol: mEPSCs & mIPSCs are measured in cultured primary hippocampal neurons at baseline and following acute application of agonists. Excitatory terminals selectively express the sushi domain-containing GABABR1a isoform (ref18), where it functions to inhibit neurotransmitter release (ref 24). Acute exposure of primary hippocampal neurons from wild type mice to 30μM baclofen, a GABABR agonist, or 250 nM sAPPα (Fc cleaved) reduces the frequency of miniature excitatory postsynaptic currents (mEPSCs) by 68% (FIG. 8 a,b) and 39% (FIG. 8 c,d), respectively, with no effect on mEPSC amplitude (FIG. 8e). […]
Single neurons from wild type or APP/APLP1 null mutant embryos (E18) were recorded within the large neuronal network at DIV 12-15. […] Spontaneous events were detected using Mini Analysis program (Synaptosoft). mEPSCs and mIPSCs were separated on the basis of their distinct decay kinetics, using a threshold of 5 ms47. Baseline was determined from an average of 60 sec of recordings prior to protein or drug treatment. Effect of treatment was determined from an average of 30 sec recordings after 140 sec of protein or drug treatment.

[4] = biological target: T1, sushi1 domain of GABABR1a (Homo sapiens, UniProt Q9UBS5); test: BioLayer Interferometry binding of sAPPα to sushi domains
T1 construct: made in house
Excerpt: We first determined which GABAB subunit and isoform sAPPα bound. The GABABR is comprised of two subunits, the GABABR1 and the GABABR2 subunit. GABABR1 is present as two main isoforms (1a and 1b), with the only difference between these isoforms being the presence of two protein-binding sushi repeats in the ectodomain of GABABR1a (FIG. 1A-B). […] The sequence of the Sushi domain 1 is […].

T1 sequence (Q9UBS5 26-97): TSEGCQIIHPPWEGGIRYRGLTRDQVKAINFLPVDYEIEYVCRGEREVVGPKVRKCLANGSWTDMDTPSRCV

B1: sAPPα: soluble amyloid precursor protein α ectodomain; mouse APP695 18-612aa, Fc tag cleaved (protein)
chain: LEVPTDGNAGLLAEPQIAMFCGKLNMHMNVQNGKWESDPSGTKTCIGTKEGILQYCQEVYPELQITNVVEANQPVTIQNWCKRGRKQCKTHTHIVIPYRCLVGEFVSDALLVPDKCKFLHQERMDVCETHLHWHTVAKETCSEKSTNLHDYGMLLPCGIDKFRGVEFVCCPLAEESDSVDSADAEEDDSDVWWGGADTDYADGGEDKVVEVAEEEEVADVEEEEADDDEDVEDGDEVEEEAEEPYEEATERTTSTATTTTTTTESVEEVVRVPTTAASTPDAVDKYLETPGDENEHAHFQKAKERLEAKHRERMSQVMREWEEAERQAKNLPKADKKAVIQHFQEKVESLEQEAANERQQLVETHMARVEAMLNDRRRLALENYITALQAVPPRPHHVFNMLKKYVRAEQKDRQHTLKHFEHVRMVDPKKAAQIRSQVMTHLRVIYERMNQSLSLLYNVPAVAEEIQDEVDELLQKEQNYSDDVLANMISEPRISYGNDALMPSLTETKTTVELLPVNGEFSLDDLQPWHPFGVDSVPANTENEVEPVDARPAADRGLTTRPGSGLTNIKTEEISEVKMDAEFGHDSGFEVRHQK
- reduction of total presynaptic strength (S=ΔF×D) ([1]; 1 μM, 15 min after addition, 30 APs at 1 Hz): 57%
- effect on presynaptic vesicle recycling (in words) ([1]; FM1-43, sAPPαΔExD at 1 μM): dose dependent manner
- reduction of mIPSC amplitude ([2]; 250 nM sAPPα): 14%
- effect on mEPSC amplitude ([2]; 250 nM, acute exposure): no effect
- reduction of mIPSC frequency ([2]; acute application, 30 μM baclofen, 250 nM proteins): 44%
- reduction of mEPSC frequency ([2]; acute exposure, 30 μM baclofen or 250 nM sAPPα (Fc cleaved), wild type mice): 39%
- effect on mEPSC frequency [3]: reduces
- effect on mIPSC frequency [3]: reduces
- binding of sAPPα to Sushi 1 domain by BioLayer Interferometry [4]: direct binding
